Results: patent publication US20030148956A1 (PROCTER AND GAMBLE, published 2003)
Ends that are not written are not given here.

Legend:
CRF2R = biological target: T1, CRF2R; assay: cell-based or functional assay
T1 sequence (Q13324 whole entry, species assumed, looked up): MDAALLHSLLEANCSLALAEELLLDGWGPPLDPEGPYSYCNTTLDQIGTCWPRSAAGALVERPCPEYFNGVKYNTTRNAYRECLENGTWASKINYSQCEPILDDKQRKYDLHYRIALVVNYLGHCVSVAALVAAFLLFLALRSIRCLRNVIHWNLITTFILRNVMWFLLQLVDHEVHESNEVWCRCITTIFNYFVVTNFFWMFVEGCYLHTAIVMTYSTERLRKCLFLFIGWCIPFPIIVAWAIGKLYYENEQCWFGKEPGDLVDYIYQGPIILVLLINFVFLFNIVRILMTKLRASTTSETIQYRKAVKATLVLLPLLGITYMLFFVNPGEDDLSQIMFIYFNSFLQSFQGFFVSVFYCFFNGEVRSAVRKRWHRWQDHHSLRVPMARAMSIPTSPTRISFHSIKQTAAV

CRF1R = assay: cell-based or functional assay

Binder	CRF2R EC50 (CRF2R) [nM]	CRF2R Emax (CRF2R) [%]	CRF1R EC50 (CRF1R) [nM]	CRF1R Emax (CRF1R) [%]
Ac-IVLSLDVPIGLLQILLEQEKARAAREQATTNARILARV-NH2 [SEQ ID NO 3]	12.1	–	–	–
Ac-IVLSLDVPIGLLQILLEQEKARAAREQATTNARILARV-NH2 (not fully specified) [SEQ ID NO 107]	12.1	–	–	–
IVLSLDVPIGLLQILLEQEKARAAREQATTNARILARV-NH2 [SEQ ID NO 121]	5.67	–	–	–
SQEPPISLDLPLELLREVLEMTKADQLAQQAHSNRKLLDIA-NH2 [SEQ ID NO 89]	100	12.7	–	–
ZGPPISIDLSIGLLRKMIEIEKQEKEKQQAANNRLLLDTI (C-terminal amide) [SEQ ID NO 25]	81	81.9	677	92.3
ZGPPISIDLPILLLRKMIEIEKQEKEKQQAANNRLLLDTI (C-terminal amide) [SEQ ID NO 35]	15.6	88	> 1000	74
ZGPPISIDLPAYLLRKMIEIEKQEKEKQQAANNRLLLDTI (C-terminal amide) [SEQ ID NO 32]	20.2	98	606	94
ZGPPISIDLPIFLLRKMIEIEKQEKEKQQAANNRLLLDTI (C-terminal amide) [SEQ ID NO 29]	16	100	> 1000	79
ZGPPISIDLPINLLRKMIEIEKQEKEKQQAANNRLLLDTI (C-terminal amide) [SEQ ID NO 37]	> 100	51	> 1000	5
ZGPPISIDLPQQLLRKMIEIEKQEKEKQQAANNRLLLDTI (C-terminal amide) [SEQ ID NO 198]	29.9	100	–	–
ZGPPISIDLPIILLRKMIEIEKQEKEKQQAANNRLLLDTI (C-terminal amide) [SEQ ID NO 36]	14.8	73	> 1000	33
ZGPPISIDLPTKLLRKMIEIEKQEKEKQQAANNRLLLDTI (C-terminal amide) [SEQ ID NO 45]	> 100	44	> 1000	7
ZGPPISIDLPTWLLRKMIEIEKQEKEKQQAANNRLLLDTI (C-terminal amide) [SEQ ID NO 41]	18.3	100	> 1000	43
ZGPPISIDLPIPLLRKMIEIEKQEKEKQQAANNRLLLDTI (C-terminal amide) [SEQ ID NO 26]	91.8	86	> 1000	16
ZGPPISIDLPIKLLRKMIEIEKQEKEKQQAANNRLLLDTI (C-terminal amide) [SEQ ID NO 34]	> 100	45	> 1000	11
ZGPPISIDLPTFLLRKMIEIEKQEKEKQQAANNRLLLDTI (C-terminal amide) [SEQ ID NO 44]	19.1	87	944	64
ZGPPISIDLPEYLLRKMIEIEKQEKEKQQAANNRLLLDTI (C-terminal amide) [SEQ ID NO 48]	100	14	1000	21
ZGPPISIDLPQYLLRKMIEIEKQEKEKQQAANNRLLLDTI (C-terminal amide) [SEQ ID NO 27]	10.7	96	325	100
ZGPPISIDLPIVLLRKMIEIEKQEKEKQQAANNRLLLDTI (C-terminal amide) [SEQ ID NO 31]	30.8	100	> 1000	18
ZGPPISIDLPTSLLRKMIEIEKQEKEKQQAANNRLLLDTI (C-terminal amide) [SEQ ID NO 43]	> 100	67	> 1000	10
ZGPPISIDLPTVLLRKMIEIEKQEKEKQQAANNRLLLDTI (C-terminal amide) [SEQ ID NO 46]	> 100	100	> 1000	17
ZGPPISIDLPIDLLRKMIEIEKQEKEKQQAANNRLLLDTI (C-terminal amide) [SEQ ID NO 28]	100	15	> 1000	2
ZGPPISIDLSLELLRKMIEIEKQEKEKQQAANNALLLATI (C-terminal amide) [SEQ ID NO 30]	18.7	85.5	100	100
ZGPPISIDLPTTLLRKMIEIEKQEKEKQQAANNRLLLDTI (C-terminal amide) [SEQ ID NO 42]	> 100	88	> 1000	10
ZGPPISIDLPQVLLRKMIEIEKQEKEKQQAANNRLLLDTI (C-terminal amide) [SEQ ID NO 197]	48.1	94	–	–
ZGPPISIDLPYYLLRKMIEIEKQEKEKQQAANNRLLLDTI (C-terminal amide) [SEQ ID NO 40]	6.95	93	102	99
ZGPPISIDLPTDLLRKMIEIEKQEKEKQQAANNRLLLDTI (C-terminal amide) [SEQ ID NO 49]	> 100	37	> 1000	15
ZGPPISIDLPVYLLRKMIEIEKQEKEKQQAANNRLLLDTI (C-terminal amide) [SEQ ID NO 39]	58.2	94	1000	63
ZGPPISIDLPIALLRKMIEIEKQEKEKQQAANNRLLLDTI (C-terminal amide) [SEQ ID NO 47]	> 100	66	1000	12
ZGPPISIDLPIRLLRKMIEIEKQEKEKQQAANNRLLLDTI (C-terminal amide) [SEQ ID NO 38]	71.9	91	> 1000	11
